From paper PMC5345815

Target: recombinant gp41 of HIV-1 (ectodomain, amino acids 533-684, from clone pNL4-3), secreted from 293 cells (HIV-1 (infectious molecular clone pNL4-3))
Assay: native gel or EMSA; Novex Native PAGE 4-20% Tris-Glycine gradient gel of purified gp41, Western blot with 2F5; single band below the 170 kDa marker

recombinant gp41 of HIV-1 (ectodomain, amino acids 533-684, from clone pNL4-3), secreted from 293 cells (domain or fragment)
stoichiometry N: 3
